# Reference: US11440969B2, “Use of human epididymis protein 4 (HE4) for assessing responsiveness of MUC 16-positive cancer treatment” (Genentech, Inc., priority 2016, dated 2022)
# B1: DMUC5754A: antibody-drug conjugate: humanized IgG1 anti-MUC16 monoclonal antibody and MMAE, linked through protease labile linker maleimidocaproyl-valine-citrulline-p-aminobenzyloxycarbonyl (conjugate, chains of the INN, looked up)
# VH: EVQLVESGGGLVQPGGSLRLSCAASGYSITNDYAWNWVRQAPGKGLEWVGYISYSGYTTYNPSLKSRFTISRDTSKNTLYLQMNSLRAEDTAVYYCARWTSGLDYWGQGTLVTVSS
# VL: DIQMTQSPSSLSASVGDRVTITCKASDLIHNWLAWYQQKPGKAPKLLIYGATSLETGVPSRFSGSGSGTDFTLTISSLQPEDFATYYCQQYWTTPFTFGQGTKVEIK
# modifications: MMAE via mc-vc-PABC linker
# Test: Safety of DMUC5754A in patients: related adverse events, DLT, MTD/RP2D (NCI CTCAE v4.0)
# Type: in vivo, human
# Conditions: for Median time to onset of first PN on study / On study PN = No, patients n (%) / On study PN = Yes, patients n (%): q3w dosing
# Description: This multicenter, open-label, dose-escalation study was designed to identify the recommended Phase II dose (RP2D) of DMUC5754A in patients with platinum-resistant OC or unresectable pancreatic cancer. In the single-agent dose escalation stage utilizing a 3+3 enrollment scheme, patients were given intravenous DMUC5754A (Genentech Inc.) 0.3-3.2 mg/kg every 3 weeks (q3w) to evaluate the safety, tolerability, and pharmacokinetics of DMUC5754A. Following determination of the maximum tolerated dose (MTD), dose-expansion cohorts were enrolled at the RP2D of 2.4 mg/kg to further characterize the safety and preliminary clinical efficacy of DMUC5754A.
# Dosing on a weekly (qlw) schedule was also evaluated at the RP2D, employing a 3+3 design to determine the MTD of weekly dosing, followed by a cohort expansion to further characterize the safety and activity of q1w dosing.
# Safety was evaluated according to NCI CTCAE v4.0. […] The maximum tolerated dose (MTD) was defined as the dose at which ≤1 of 6 patients at an assigned dose with protocol-defined DLT. Patients who experienced a DLT or adverse event (AE) meeting DLT criteria after the DLT assessment window were allowed to delay dosing for up to 2 weeks or undergo a dose reduction.
# [1] = q3w patients, over all dose levels
molecule,measurement,setting,value
B1,"Pyrexia (related AE), patients",q3w 0.3 mg/kg (n = 3),0
same,"Vomiting (related AE), patients",q3w 0.3 mg/kg (n = 3),0
same,"Alopecia (related AE), patients",q3w 0.6 mg/kg (n = 3),0
same,"Any adverse events (related), patients",q3w 0.6 mg/kg (n = 3),1
same,"Arthralgia (related AE), patients",q3w 0.6 mg/kg (n = 3),0
same,"Asthenia (related AE), patients",q3w 0.6 mg/kg (n = 3),0
same,"Decreased appetite (related AE), patients",q3w 0.6 mg/kg (n = 3),0
same,"Diarrhea (related AE), patients",q3w 0.6 mg/kg (n = 3),1
same,"Dysgeusia (related AE), patients",q3w 0.6 mg/kg (n = 3),0
same,"Fatigue (related AE), patients",q3w 0.6 mg/kg (n = 3),1
same,"Hypokalemia (related AE), patients",q3w 0.6 mg/kg (n = 3),0
same,"Hypomagnesaemia (related AE), patients",q3w 0.6 mg/kg (n = 3),0
same,"Hypophosphatemia (related AE), patients",q3w 0.6 mg/kg (n = 3),0
same,"Nausea (related AE), patients",q3w 0.6 mg/kg (n = 3),0
same,"Neutropenia (related AE), patients",q3w 0.6 mg/kg (n = 3),0
same,"Peripheral neuropathy (related AE), patients",q3w 0.6 mg/kg (n = 3),0
same,"Pyrexia (related AE), patients",q3w 0.6 mg/kg (n = 3),0
same,"Vomiting (related AE), patients",q3w 0.6 mg/kg (n = 3),1
same,"Alopecia (related AE), patients",q3w 1.2 mg/kg (n = 3),0
same,"Any adverse events (related), patients",q3w 1.2 mg/kg (n = 3),3
same,"Arthralgia (related AE), patients",q3w 1.2 mg/kg (n = 3),0
same,"Asthenia (related AE), patients",q3w 1.2 mg/kg (n = 3),0
same,"Decreased appetite (related AE), patients",q3w 1.2 mg/kg (n = 3),2
same,"Diarrhea (related AE), patients",q3w 1.2 mg/kg (n = 3),1
same,"Dysgeusia (related AE), patients",q3w 1.2 mg/kg (n = 3),0
same,"Fatigue (related AE), patients",q3w 1.2 mg/kg (n = 3),1
same,"Hypokalemia (related AE), patients",q3w 1.2 mg/kg (n = 3),0
same,"Hypomagnesaemia (related AE), patients",q3w 1.2 mg/kg (n = 3),0
same,"Hypophosphatemia (related AE), patients",q3w 1.2 mg/kg (n = 3),0
same,"Nausea (related AE), patients",q3w 1.2 mg/kg (n = 3),0
same,"Neutropenia (related AE), patients",q3w 1.2 mg/kg (n = 3),0
same,"Peripheral neuropathy (related AE), patients",q3w 1.2 mg/kg (n = 3),0
same,"Pyrexia (related AE), patients",q3w 1.2 mg/kg (n = 3),0
same,"Vomiting (related AE), patients",q3w 1.2 mg/kg (n = 3),1
same,"Alopecia (related AE), patients",q3w 1.8 mg/kg (n = 3),1
same,"Any adverse events (related), patients",q3w 1.8 mg/kg (n = 3),2
same,"Arthralgia (related AE), patients",q3w 1.8 mg/kg (n = 3),2
same,"Asthenia (related AE), patients",q3w 1.8 mg/kg (n = 3),0
same,"Decreased appetite (related AE), patients",q3w 1.8 mg/kg (n = 3),1
same,"Diarrhea (related AE), patients",q3w 1.8 mg/kg (n = 3),2
same,"Dysgeusia (related AE), patients",q3w 1.8 mg/kg (n = 3),0
same,"Fatigue (related AE), patients",q3w 1.8 mg/kg (n = 3),1
same,"Hypokalemia (related AE), patients",q3w 1.8 mg/kg (n = 3),0
same,"Hypomagnesaemia (related AE), patients",q3w 1.8 mg/kg (n = 3),2
same,"Hypophosphatemia (related AE), patients",q3w 1.8 mg/kg (n = 3),1
same,"Nausea (related AE), patients",q3w 1.8 mg/kg (n = 3),1
same,"Neutropenia (related AE), patients",q3w 1.8 mg/kg (n = 3),0
same,"Peripheral neuropathy (related AE), patients",q3w 1.8 mg/kg (n = 3),2
same,"Pyrexia (related AE), patients",q3w 1.8 mg/kg (n = 3),2
same,"Vomiting (related AE), patients",q3w 1.8 mg/kg (n = 3),0
same,"Alopecia (related AE), patients",q3w 2.4 mg/kg (n = 39),9
same,"Any adverse events (related), patients",q3w 2.4 mg/kg (n = 39),39
same,"Arthralgia (related AE), patients",q3w 2.4 mg/kg (n = 39),5
same,"Asthenia (related AE), patients",q3w 2.4 mg/kg (n = 39),5
same,"Decreased appetite (related AE), patients",q3w 2.4 mg/kg (n = 39),11
same,"Diarrhea (related AE), patients",q3w 2.4 mg/kg (n = 39),8
same,"Dysgeusia (related AE), patients",q3w 2.4 mg/kg (n = 39),7
same,"Fatigue (related AE), patients",q3w 2.4 mg/kg (n = 39),26
same,"Hypokalemia (related AE), patients",q3w 2.4 mg/kg (n = 39),4
same,"Hypomagnesaemia (related AE), patients",q3w 2.4 mg/kg (n = 39),6
same,"Hypophosphatemia (related AE), patients",q3w 2.4 mg/kg (n = 39),2
same,"Nausea (related AE), patients",q3w 2.4 mg/kg (n = 39),15
same,"Neutropenia (related AE), patients",q3w 2.4 mg/kg (n = 39),8
same,"Peripheral neuropathy (related AE), patients",q3w 2.4 mg/kg (n = 39),17
same,"Pyrexia (related AE), patients",q3w 2.4 mg/kg (n = 39),7
same,"Vomiting (related AE), patients",q3w 2.4 mg/kg (n = 39),10
same,"Alopecia (related AE), patients",q3w 3.2 mg/kg (n = 3),1
same,"Any adverse events (related), patients",q3w 3.2 mg/kg (n = 3),3
same,"Arthralgia (related AE), patients",q3w 3.2 mg/kg (n = 3),1
same,"Asthenia (related AE), patients",q3w 3.2 mg/kg (n = 3),1
same,"Decreased appetite (related AE), patients",q3w 3.2 mg/kg (n = 3),1
same,"Diarrhea (related AE), patients",q3w 3.2 mg/kg (n = 3),1
same,"Dysgeusia (related AE), patients",q3w 3.2 mg/kg (n = 3),1
same,"Fatigue (related AE), patients",q3w 3.2 mg/kg (n = 3),2
same,"Hypokalemia (related AE), patients",q3w 3.2 mg/kg (n = 3),2
same,"Hypomagnesaemia (related AE), patients",q3w 3.2 mg/kg (n = 3),0
same,"Hypophosphatemia (related AE), patients",q3w 3.2 mg/kg (n = 3),3
same,"Nausea (related AE), patients",q3w 3.2 mg/kg (n = 3),3
same,"Neutropenia (related AE), patients",q3w 3.2 mg/kg (n = 3),1
same,"Peripheral neuropathy (related AE), patients",q3w 3.2 mg/kg (n = 3),1
same,"Pyrexia (related AE), patients",q3w 3.2 mg/kg (n = 3),2
same,"Vomiting (related AE), patients",q3w 3.2 mg/kg (n = 3),3
same,"Alopecia (related AE), patients",q3w All Patients (n = 54),11
same,"Any adverse events (related), patients",q3w All Patients (n = 54),51
same,"Arthralgia (related AE), patients",q3w All Patients (n = 54),8
same,"Asthenia (related AE), patients",q3w All Patients (n = 54),6
same,"Decreased appetite (related AE), patients",q3w All Patients (n = 54),16
same,"Diarrhea (related AE), patients",q3w All Patients (n = 54),13
same,"Dysgeusia (related AE), patients",q3w All Patients (n = 54),8
same,"Fatigue (related AE), patients",q3w All Patients (n = 54),31
same,"Hypokalemia (related AE), patients",q3w All Patients (n = 54),6
same,"Hypomagnesaemia (related AE), patients",q3w All Patients (n = 54),9
same,"Hypophosphatemia (related AE), patients",q3w All Patients (n = 54),6
same,"Nausea (related AE), patients",q3w All Patients (n = 54),20
same,"Neutropenia (related AE), patients",q3w All Patients (n = 54),9
same,"Peripheral neuropathy (related AE), patients",q3w All Patients (n = 54),21
same,"Pyrexia (related AE), patients",q3w All Patients (n = 54),11
same,"Vomiting (related AE), patients",q3w All Patients (n = 54),15
same,patients with AEs leading to treatment discontinuation,"q3w cohorts, 3/54 patients",5.6%
same,Median time to onset of first PN on study,Prior neuropathy = No,71 days
same,"On study PN = No, patients n (%)",Prior neuropathy = No,11 (20%)
same,"On study PN = Yes, patients n (%)",Prior neuropathy = No,18 (33%)
same,Median time to onset of first PN on study,Prior neuropathy = Yes,148 days
same,"On study PN = No, patients n (%)",Prior neuropathy = Yes,20 (37%)
same,"On study PN = Yes, patients n (%)",Prior neuropathy = Yes,5 (9%)
same,Median time to onset of first PN on study,Total,99 days
same,"On study PN = No, patients n (%)",Total,31 (57%)
same,"On study PN = Yes, patients n (%)",Total,23 (43%)
same,"Drug-related SAE hypocalcemia, patients",q3w patients,1
same,"Drug-related SAE neutropenia, patients",q3w patients,1
same,"Drug-related SAE small intestine obstruction, patients",q3w patients,2
same,"alopecia, related AE",[1],20.4%
same,"decreased appetite, related AE",[1],29.6%
same,"diarrhea, related AE",[1],24.1%
same,"fatigue, related AE",[1],57.4%
same,"nausea, related AE",[1],37.0%
same,"peripheral sensory neuropathy, related AE",[1],27.8%
same,"pyrexia, related AE",[1],20.4%
same,"vomiting, related AE",[1],27.8%
same,Grade ≥3 related fatigue,"q3w patients, total",7.4%
same,Grade ≥3 related neutropenia,"q3w patients, total",9.3%
same,RP2D,q3w schedule,2.4 mg/kg
same,"Grade ≥3 related fatigue, patients","q3w, at 2.4 mg/kg",4
same,"Grade ≥3 related neutropenia, patients","q3w, at 2.4 mg/kg",4
